Data reported in PMC4924701.

Target: GADS (UniProt O75791)
Test: anti-FLAG co-IP, Western blot
Conditions: reference: wild-type FLT3

Substance	binding against the reference (sites Y955)	binding against the reference (sites Y955,Y969)
FLT3 (from UniProt P36888) FLT3-Y955F	weaker	–
FLT3 (from UniProt P36888) FLT3-Y955F-Y969F	–	lost
